Results from patent US20030105292A1.
Values belong to the molecule of their own block, whether it stands above or below them.

Key:
Gs protein [1] = target: Gs protein
G protein Gi [2] = target: G protein Gi
G protein Gi [3] = target: G protein Gi; remark: listed apart in the source
Gs protein [4] = target: Gs protein; remark: listed apart in the source

luciferase, CRE-Luc reporter in 293 cells (relative light units) (Gs protein [1]): 104
Molecule: endogenous, constitutively activated GPR6 (from UniProt P46095) (receptor)

luciferase, 8xCRE-Luc reporter in 293 cells co-transfected with GPR3; Per-Cent Difference of the non-endogenous against the endogenous GPCR (G protein Gi [2]): 74.5%
Molecule: non-endogenous, constitutively activated GPR17 (V234K) (receptor)

luciferase, CRE-Luc reporter in 293 cells co-transfected with GPR6; Per-Cent Difference of the non-endogenous against the endogenous GPCR (G protein Gi [2]): 71.6%
Molecule: non-endogenous, constitutively active GPR30 (L258K) (receptor)

luciferase, AP1 reporter assay in 293T cells; Per-Cent Difference of the non-endogenous against the endogenous GPCR (G protein Gq): 61.1%
luciferase, AP1 reporter assay in 293 cells; Per-Cent Difference of the non-endogenous against the endogenous GPCR (G protein Gq): 48.4%
Molecule: non-endogenous human ETBR-LP2 (N358K) (receptor)

luciferase, CRE-Luc reporter in 293 cells co-transfected with GPR6 at a 1:4 ratio (relative light units) (G protein Gi [3]): 104
Molecule: endogenous human GPR30 (receptor)

[35S]GTPgammaS binding to membranes expressing the receptor; Per-Cent Difference of the non-endogenous against the endogenous GPCR (G protein): 49%
B1: non-endogenous human APJ (L247K) (receptor)
chain: MEEGGDFDNYYGADNQSECEYTDWKSSGALIPAIYMLVFLLGTTGNGLVLWTVFRSSREKRRSADIFIASLAVADLTFVVTLPLWATYTYRDYDWPFGTFFCKLSSYLIFVNMYASVFCLTGLSFDRYLAIVRPVANARLRLRVSGAVATAVLWVLAALLAMPVMVLRTTGDLENTTKVQCYMDYSMVATVSSEWAWEVGLGVSSTTVGFVVPFTIMLTCYFFIAQTIAGHFRKERIEGLRKRRRLKSIIVVLVVTFALCWMPYHLVKTLYMLGSLLHWPCDFDLFLMNIFPYCTCISYVNSCLNPFLYAFFDPRFRQACTSMLCCGQSRCAGTSHSSSGEKSASYSSGHSQGPGPNMGKGGEQMHEKSIPYSQETLVVD

luciferase, CREB reporter assay in 293T cells; Per-Cent Difference of the non-endogenous against the endogenous GPCR (Gs protein [4]): 35.6%
luciferase, CREB reporter assay in 293 cells; Per-Cent Difference of the non-endogenous against the endogenous GPCR (Gs protein [4]): 58.9%
B2: non-endogenous human GHSR (V262K) (receptor)
chain: MWNATPSEEPGFNLTLADLDWDASPGNDSLGDELLQLFPAPLLAGVTATCVALFVVGIAGNLLTMLVVSRFRELRTTTNLYLSSMAFSDLLIFLCMPLDLVRLWQYRPWNFGDLLCKLFQFVSESCTYATVLTITALSVERYFAICFPLRAKVVVTKGRVKLVIFVIWAVAFCSAGPIFVLVGVEHENGTDPWDTNECRPTEFAVRSGLLTVMVWVSSIFFFLPVFCLTVLYSLIGRKLWRRRRGDAVVGASLRDQNHKQTKKMLAVVVFAFILCWLPFHVGRYLFSKSFEPGSLEIAQISQYCNLVSFVLFYLSAAINPILYNIMSKKYRVAVFRLLGFEPFSQRKLSTLKDESSRAWTESSINT
